The text below walks through data of a protein production outcome set (Wang et al. 2014).
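Further: failed if final PepcDB status was selected cloned or expressed and not failed if soluble or beyond.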

A short description of the data set: label from the status in PepcDB records.
With “MGNPADQKDSKAKQKTEVFPVTIDDASNQDVTIKKEPKKIVSLMPSNTEITYALGLGDKVVGVTTNDTYPKEVKKVEKVGDMNVNVEKVISLKPDLVLAHESSMSASADAIKQLKDAGITVLTVNDAQSFSEVYKSIEMIGEAGGAEKKADQLVKSMKSDLKDIQEKAKTISKDEEKSVFIEVSPDPDIYTTGKDTFMNEMLNVIHAKNAAADQTGWVQMTDEAIVKLNPDAIVTTDGVKAKAVEKRDGWSEINAVKHHRVYDVDPDLVTRSGPRLIEGVEELAESIYPDTFKE”, the protein production entry is recorded as “failed”. The result for “MRTSAFVPVLLFALLGALVGCSGGTELTYSGPEEAYKKGVAEMEEGDHQQAIRFFRAVFEYGRGNEWAPDARFKLAMAQRGLNKHLVAANEFQRFTQLYRNDELLPRAEFERANSYYLRSPSYRLDQSDSEQAISLFRLFIDRHPNHELVPEAEEKINELRAKLARKKYEAGRLYEQRDMWQAATTVYERAFDQYPDTPWADDALLGAVRTYIRYADRSVESKQAERYQKAIENYNRLTQLFPESTLLGRAEDLYSEAREKLDRAQAQQGEQSLAQEDASSGSN” reads “failed”; that for “MPAYDLIIRNGTICDGTGAPRFTGDVAVKNGLIVAVGAVRGDAAEEVDATGRIVAPGWVDVHTHYDGQATWDPEMAPSSWHGVTTVIMGNCGVGFAPAAPDRHDWLIGLMEGVEDIPGTALAEGMAWDWESFPEYLDSLEKMPRAVDVGTHVPHGAVRAYVLGEREKPGAVPTAEDIRKMSEIVEEGVRAGALGFSTSRTVIHKSVDGEVVPGTTATAEELIEIGRAMGRVGHGVFEMASDMKREWDEFGWMGALSRETGLPVTYAALQSIAKEMPLEEQIAEMRHQNAQGANIVAQIALRGNGVIMAWRGTIHPFRFRPSYAAIAELPWEEQLVQLKDPAFRAKVLAEANVYPDSDIVNLFRMIAEGWHNQFIMDEDFDYEPQPEASILLRAKTAGVSPDAFAYDKLMEDEGNGFIYLPILNYADGNLDFLEALQAADDTVNSLSDGGAHCGTICDAASPTFMLQHWVRDRRRGSRISLEHAIKRQCHDTARLYGLDDRGVIAPGYLADINVIDFDRVRLLKPWLAFDLPAGGKRLLQKAEGYDYTIKGGKVTFRNGEWTGATPGNLIRGPQRADLMEAAE”, “failed”.

As for “MRWGSWLALAGLNAFLSIASGAFAAHALSALGDAHGVGLMEKSARYQMYGAFALVVCAWLAERGVGGRLVAVAGWLHLAGVVLFCGALSAIALLGWPAGPVAPLGGSAMLLGWGVLAWIGLRARRGA”, the protein production entry was “failed”. Then “MKKKNKLLFILGIIGPGLITVNAGNDAGGIATYATVGASYGYKMLWGLLLITFSLAIIQEMNARMAVVTGKGLSDLIRENYGVKWSLFAMCILFIANFGVCVGDFAGIAASLELFGISKYITVPIMAFLVWFVITKGSYEKTEKVFLAFTFVFFTYIITCIKVHPNWNVVMKATITPSLSFTKGYVLTLIGMIGTTITPYMQFYLQSSVVDKGLSVKEYKYEKIDVYLGAIWGDLVSFFIIVCTAVTLYKAGIKIDSAEQAAMALKPLAGNYATILFAAGLFGASVLATMVIPLSTTYAICEAFGFESGLDNSFSEAKTFYGIFTFMILFSAALVLVPKLSLVGIMLITQQIAGILSPVILIFMVLLINNKDIMGKYINNKLQNVIVYLTVAFIIILSLILFVSPIIDKLM”, with “failed”. The result for “MERKLGISLYPEHSTKEKDMAYISAAARHGFSRIFTCLLSVNRPKEEIVAEFKEIINHAKDNNMEVILDVAPAVFDQLGISYSDLSFFAELGADGIRLDVGFDGLTEAKMTNNPYGLKIELNVSNDIAYLENILSHQANKSALIGCHNFYPQKFTGLPYDYFIRCSERFKKHGIRSAAFITSHVANIGPWDINDGLCTLEEHRNLPIEVQAKHLWATGLIDDVIIGNAYASEEELEKLGNLNRYMLQLKVHFVDEATEVEKRATLQELHVRRGDITEYMVRSTEVRKKYKDYDFPVRESVLQERGQVVIGNNSFGKYKGELQIILKEMPIDERKNIVGTIAEEELFLLDYVGAWTQFTCVE” reads “not failed”. Consider “MQRVEEVFARREPELAPMAEPAPQPQVRQEPLPEVDQAYIHNYVETSGQQDIRADFRDDAGAVAEVFDVHSRQPRAAEPVVYQQAAPQVAPQLAWEEPQAIEPSQPEWHAMPELPADVSSNISSDAHAYAPEPQAFDLADEVEIAVAEAAPAPVSVRPPAHGGRSSLEFSSLRLPLANFGARRDVSAVDPRRVEPRSELYPAASRIEPQVEPAPAVVQAEETAPSFAQPVAEVFTPAAEPLAPAIAERPAAKNLSPMDELIYGVAQYSIPERGEAQPVKTEPVAQAAKVEPPAVAAAPAKAAPVAAAVPASPIEEPDFTDFTGFNDDDFELALDDLDLDLDLSEIAEAEVAPAPQPVRPQPATPIAAVAPQPVRHEPAPQPRPAPVVAAAPIAAAPVVAAPVQPRPVAAQPAVPQTLESLPFDPSQIGETEEHPETIIEMDVPELPVGVFEPKPAARRHEEDLDIDTELATLFAPAVAGGLDRHKHAENRGAAQARPAPAPEEADEFERALEEDFRRSMQEAAASRGNAPRDAETYVDHQAAYRDEDERGGRRWIMPVAAAIGLVLIGGGVYALISGGSSGTGSNGAPVIISADNDPMKVVPENPGGRVVPNQDKAVYDRVAGGAAADPKQPALISSNEKPVDVVQRTLIPEQLPLEGENDADMEAAGTPVGETEDPRLLSPEEKAAHNEGAGATGVSPRKVRTMIVKPDGTLVAQEVDAPAAQPPKADKVAELAAPQTAKPGEGAPAVIAASRVPVAPEQAQPQASTPAAAKPSTQSAAPLPAARPSSQPANVVATVTNQGNVRPATTAPAQAAQQQTAAATPAATSTPSAGGYYIQIASLPSQAEAQKSYQNMSAKFGSVIGGRGVDIKAAEIAGKGTFYRVRIPAGDKNEAVALCEKFRSAGGSCLVAR”, for which the protein production entry is on record as “failed”. The result for “MRIDAHHHLWDLSVRDQPWTSDVPALRRTFTAAELRPALERNAIDATVVVQTIAVPQETPELLALTCTDPQVRAVVGWTDLTEPGIADRLAELREQPGGSALVGIRHGIQDETDPQWPARPEVRRGITSVAAAGLVYDLLVRPDQLPSAVRAVRELPDVRFVLDHAGNPVVSPDGLVSWTALLTDLAECPNVTVKLSGLVTRTGGDPAAALRPYADVLFETMGPDRLMYGSDWPVCLLAAEYDEVVAVAESLTEELSADEREAVFGTTAARWYGIPS” reads “failed”; that for “MEVKIEKPTPEKLKELSVEKWPIWEKEVSEFDWYYDTNETCYILEGKVEVTTEDGKKYVIEKGDLVTFPKGLRCRWKVLEPVRKHYNLF”, “not failed”; that for “MSLNGITKYVEKLTFFNIQSGKQVEFNRDEKVILSNVPFIQQLPELDRGCEVTSLAMMLQYAGITVDKMKLANEIKKVDFMNDGVRGNPNEGFVGNIYTFSESGYGVYHGPLFQLAKKYLPNKAVDLTGKSIEELYKSVKAGQPVVIITNATFAPLDEDEFTTWETNNGDVSITYNEHCVVLIGYDQESVYIRDPLKDSLDVKVPREKFEQAWVQMGSQAISYVKRSKEGHHHHHH”, “not failed”.

With “MIMMKRYKKILLTGVLSALSCSFVHAQELYKNENAPVHERVMDLISRLTVEEKISLLRATSPGIPRLGIDKYYHGNEALHGVVRPGRFTVFPQAIGLAATWNPELQKRVATVISDEARARWNELDQGREQKEQFSDVLTFWSPTVNMARDPRWGRTPETYGEDPFLSGIMGTAFVNGLQGDDPHYLKIVSTPKHFAANNEEHNRFVCNPQISEKQLREYYFPAFEMCVKEGKAASIMSAYNALNDVPCTLNPWLLQKVLRQDWGFQGYVVSDCGGPALLVNAHKYVKTKEAAATLSIKAGLDLECGDDVYDGPLLNAYKQYMVSDADIDSAAYHVLTARMKLGLFDSGERNPYTKISPSVIGSKEHQQIALDAARQCVVLLKNQKNRLPLNADKLKSIAVVGINAGKCEFGDYSGAPVVEPVSILQGIRNRVGDRVKVVYAPWKSAADGLELIQGENFPEGLQAEYFDNTRLEGTPRVRKESWINFEPANQAPDPFLPKSPLSVRWTGKLKPTVSGRYTFSFTSDDGCRLSINNQMLIDAWQAHAVSTDSASIYLEAGKEYQLKAEYYDNRDYAIAKLQWKVPQIGKATRLDLYGEAGKAVRECETVVAVMGINKSIEREGQDRYDIQLPADQREFLQEIYKVNPNIIVVLVAGSSLAINWMDEHIPAIVNAWYPGEQGGTAVAEVLFGDYNPAGRLPLTYYKSLDELPPFDDYDITKGRTYKYFKGDVLYPFGYGLSYSSFTYSDLQVKDGGGEVTVSFRLKNTGKRNGDEVAQVYVRIPETGGIVPLKELKGFRRVPLKSGESRRVEIKLDKEQLRYWDVEKGQFVVPKGAFDVMVGASSKDIRLQTVIDL”, the protein production result is “failed”.

Consider “NGYTMQRDNQKTLAVYMFEEINRDVEYLSGRLSEKELKDKYRYYGRGYVRITDKDGQVITYEDGSVQDKTVFLTNEGANKLGWKLEFLIDEKMFEEEILEKQN”, for which the protein production result is reported as “not failed”.

For the sequence “MVNEYKRIVLLRGLECINKHYFSLFKSLLARDLNLERDNQEQYTTIQIANMMEEKFPADSGLGKLIEFCEEVPALRKRAEILKKERSEGETSLEKNGQEAGPATPTSTTSHMLASERGETSATQEETSTAQAGTSTAQAGTSTAQAGTSTA”, the protein production entry was “not failed”. The result for “MKPARAQGSIMLLVDVYLDKSPIQGIGVFAKHHIPMGTLIWKLDPRFDRIIDVETYEGESGPVKNYLDRYSYPDRRDPAYIVFEADDARYMNHDDEPNCDVSSPEETYALRDIAPGEELTCNYNHFFEAGFDFLGDRHL” reads “failed”; that for “MDPHVSHSAHLFSLRIAHALNEACVKDRYSFKRFGQDLLAGLTVGIIAIPLAMALAIASGVPPQYGLYTAIVGGFIIAMTGGSRYSVSGPTAAFVVLLYPIAQQFGLAGLLIATVMSGMMLVAMAMLRLGRLILYIPESVTLGFTAGIGVVIATLQLKDFFGLQIEHMPEQYFAKLMALGQALPSLHLPSLFIAAATLATMLLWPRLKIPVPAHLPAIALGSILALILNAMGAEIETIGTRFHYQLTDGGIGSGIPAVLPHFEWPWLQTGPNGQAFEFNLAAFQALLPAAFAIAMLGAIESLLCAVVLDGMTGKRHSANSELLGQGIGNIIAPFFGGIPATAAIARSAANVKAGAQSPIASMIHALVVLIGLVALAGILAYLPMSAMAALLLVVAWNMSEAPKAVHLLKTAPTSDILVFLSCFSLTVIFDMVIAISVGIILAALLFMKEIAEMTKLYDISSNKRYVDQSLPADWAVLKINGPLFFAAADRIFAEIASLTQDKQVIVLYLDGVSILDAGGLAALSKLIEKCKLNQTKLLITDLQFQPIRTLAKAKIQPVEGVLKFYPTLREALTEAPSPELEATPEATD”, “failed”; that for “MKEQYRNQNTFLSMIDMDLIRRGLLHAIQDLVFIVKVMDDETFTYIYVNKIGMDYAKLSEECYGKTFSEVLPKDTAEILQVQYAKVASEVKAHTFCDVVSLPTGNLHYESSLNPVFDEEGVCQFIICITRDIT”, “failed”. The result for “MEKFLTTTYKELNSSMYKFSKGLTLVLFSLALSACSSSPEDNDIAAKTSPDELYSQARTSMELGNYSKAVRSLEALDSRFPFGPHKTQVQLDLIYAYYKMDDVASGIANIDRFIRLNPTHPNIDYVYYMRGLVNMQADSYLFHDMLNIDRTDRDPKNAQDAFKDFDRLIKTYPNSKYAADAQKRMLSLKNRLAKYSIQVAEYYIKMNAWSAAAVRAQSVLETYPGTPSTERALEIMAEAYGELGQNQLKQNVLMVMQANFPNNEILSN” reads “failed”; that for “MHRSIRFTFDDRVPRYWHAGRAHTTRFFDCLSFMFPQGEKIFIESVVHFRHKLDKDSALDKAVDDFIYQEASHMREHRAYNQRLCAQGAPVETLERMLLRRRKESARLPASFRLALTASLEHITAILSDQLLRNPAYLKNADPTMAGLWRWHALEEIEHKAVAYDVLCTVERNPLWRYLLRCVAMLSLSVYFTFDLGYFTYHLVRGDKQHRNWREWLRLQWWLFVNPGLLSRIVPAGLFWFVPGFHPNRIDTRALLDTARQALDEQR”, “failed”.
